Residue numbers refer to the chain shown, from its start.

The target in data set [1] is T1, PAH1 Left TAL-PBx (synthetic construct).
T1 chain: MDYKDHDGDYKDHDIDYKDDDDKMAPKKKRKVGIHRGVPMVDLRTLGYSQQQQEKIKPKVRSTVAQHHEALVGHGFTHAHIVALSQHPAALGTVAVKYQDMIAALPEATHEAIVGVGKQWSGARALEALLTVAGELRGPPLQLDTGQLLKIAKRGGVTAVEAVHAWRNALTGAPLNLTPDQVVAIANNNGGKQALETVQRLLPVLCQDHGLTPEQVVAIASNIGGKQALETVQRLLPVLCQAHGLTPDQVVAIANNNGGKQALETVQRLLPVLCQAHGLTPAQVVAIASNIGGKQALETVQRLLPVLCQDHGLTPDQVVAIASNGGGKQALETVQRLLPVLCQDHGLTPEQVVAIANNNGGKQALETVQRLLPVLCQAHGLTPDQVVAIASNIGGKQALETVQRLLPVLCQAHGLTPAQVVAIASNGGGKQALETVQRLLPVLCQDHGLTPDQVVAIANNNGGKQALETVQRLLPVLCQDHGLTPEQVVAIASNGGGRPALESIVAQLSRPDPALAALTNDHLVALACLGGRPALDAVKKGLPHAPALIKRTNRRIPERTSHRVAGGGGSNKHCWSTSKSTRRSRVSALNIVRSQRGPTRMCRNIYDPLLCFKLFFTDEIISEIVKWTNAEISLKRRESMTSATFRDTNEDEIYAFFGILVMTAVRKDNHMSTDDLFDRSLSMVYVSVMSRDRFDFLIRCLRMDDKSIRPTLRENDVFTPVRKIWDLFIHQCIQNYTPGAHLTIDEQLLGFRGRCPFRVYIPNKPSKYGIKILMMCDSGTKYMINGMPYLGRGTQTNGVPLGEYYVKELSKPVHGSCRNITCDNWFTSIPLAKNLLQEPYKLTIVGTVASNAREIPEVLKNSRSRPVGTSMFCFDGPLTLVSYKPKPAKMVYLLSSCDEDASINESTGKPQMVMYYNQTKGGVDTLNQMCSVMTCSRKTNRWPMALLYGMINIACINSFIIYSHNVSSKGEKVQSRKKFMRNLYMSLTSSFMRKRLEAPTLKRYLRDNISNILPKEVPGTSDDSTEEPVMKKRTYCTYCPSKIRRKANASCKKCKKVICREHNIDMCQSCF
Put plainly: cell_activity; left only. Conditions: tags: 3xFlag, SV40 NLS.

The target of data set [2] is T2, PAH1 Right TAL-PBx (synthetic construct).
T2 chain: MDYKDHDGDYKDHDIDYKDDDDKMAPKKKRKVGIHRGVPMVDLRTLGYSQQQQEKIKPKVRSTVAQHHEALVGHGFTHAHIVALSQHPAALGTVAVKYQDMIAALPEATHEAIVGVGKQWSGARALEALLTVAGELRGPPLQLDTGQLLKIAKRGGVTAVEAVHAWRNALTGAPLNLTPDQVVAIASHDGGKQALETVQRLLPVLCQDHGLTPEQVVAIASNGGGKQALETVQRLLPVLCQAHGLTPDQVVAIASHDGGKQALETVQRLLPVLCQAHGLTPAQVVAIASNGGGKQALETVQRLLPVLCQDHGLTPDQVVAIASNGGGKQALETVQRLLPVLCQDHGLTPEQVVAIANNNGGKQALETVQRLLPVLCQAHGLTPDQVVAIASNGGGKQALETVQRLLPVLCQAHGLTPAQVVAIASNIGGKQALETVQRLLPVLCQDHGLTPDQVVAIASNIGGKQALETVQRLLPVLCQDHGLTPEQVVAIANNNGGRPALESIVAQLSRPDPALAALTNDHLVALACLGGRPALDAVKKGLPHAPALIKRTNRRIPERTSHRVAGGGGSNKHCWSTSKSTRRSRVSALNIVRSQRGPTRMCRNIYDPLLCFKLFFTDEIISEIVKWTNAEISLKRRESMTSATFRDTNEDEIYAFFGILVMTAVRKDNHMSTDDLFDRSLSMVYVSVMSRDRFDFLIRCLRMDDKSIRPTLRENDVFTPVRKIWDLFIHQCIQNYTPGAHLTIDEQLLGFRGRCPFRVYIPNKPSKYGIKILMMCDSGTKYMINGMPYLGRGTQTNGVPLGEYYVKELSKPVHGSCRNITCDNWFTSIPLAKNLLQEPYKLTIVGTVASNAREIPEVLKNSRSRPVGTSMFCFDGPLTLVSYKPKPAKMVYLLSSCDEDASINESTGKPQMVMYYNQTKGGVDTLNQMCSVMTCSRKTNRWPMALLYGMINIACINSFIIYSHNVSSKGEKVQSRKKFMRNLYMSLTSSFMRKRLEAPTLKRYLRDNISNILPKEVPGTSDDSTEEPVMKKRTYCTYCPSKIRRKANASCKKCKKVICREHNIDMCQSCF
As to the kind of experiment: cell_activity; right only. Conditions: tags: 3xFlag, SV40 NLS.

Data set [3] has as its target T3, GFP1 Right TAL-PBx (synthetic construct).
T3 chain: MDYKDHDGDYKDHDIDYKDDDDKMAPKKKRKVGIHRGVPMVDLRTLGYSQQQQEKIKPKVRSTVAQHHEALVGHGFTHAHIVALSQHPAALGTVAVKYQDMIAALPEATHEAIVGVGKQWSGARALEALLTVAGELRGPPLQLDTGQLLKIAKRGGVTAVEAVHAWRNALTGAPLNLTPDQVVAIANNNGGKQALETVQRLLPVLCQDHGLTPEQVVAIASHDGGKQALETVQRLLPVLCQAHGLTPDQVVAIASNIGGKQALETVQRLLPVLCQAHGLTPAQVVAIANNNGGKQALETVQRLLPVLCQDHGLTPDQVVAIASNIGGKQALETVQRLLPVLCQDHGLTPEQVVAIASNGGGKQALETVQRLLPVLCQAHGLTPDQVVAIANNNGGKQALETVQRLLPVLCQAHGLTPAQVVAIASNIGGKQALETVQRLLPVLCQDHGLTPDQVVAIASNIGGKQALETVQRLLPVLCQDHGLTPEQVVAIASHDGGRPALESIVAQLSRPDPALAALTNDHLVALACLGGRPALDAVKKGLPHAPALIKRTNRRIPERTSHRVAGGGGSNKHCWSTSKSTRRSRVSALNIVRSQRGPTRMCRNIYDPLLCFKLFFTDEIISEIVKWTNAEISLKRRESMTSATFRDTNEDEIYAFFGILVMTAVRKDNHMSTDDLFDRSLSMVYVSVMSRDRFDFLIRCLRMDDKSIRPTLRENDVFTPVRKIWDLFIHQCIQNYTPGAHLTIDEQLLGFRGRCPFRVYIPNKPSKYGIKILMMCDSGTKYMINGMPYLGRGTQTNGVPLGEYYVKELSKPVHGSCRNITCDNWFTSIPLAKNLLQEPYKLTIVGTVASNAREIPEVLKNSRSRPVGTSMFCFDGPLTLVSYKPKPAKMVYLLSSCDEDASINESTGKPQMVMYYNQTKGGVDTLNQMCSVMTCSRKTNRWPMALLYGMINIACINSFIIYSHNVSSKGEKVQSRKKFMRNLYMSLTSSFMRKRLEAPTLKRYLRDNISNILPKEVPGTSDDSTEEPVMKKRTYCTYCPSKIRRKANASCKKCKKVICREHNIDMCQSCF
Put plainly: cell_activity. Conditions: tags: 3xFlag, SV40 NLS; chain copies: 2.

Data set [4] concerns the target T4, GFP1 Right NT-G TAL-PBx (synthetic construct).
T4 chain: T3 chain with Q119S, W120R
Put plainly: cell_activity. Conditions: tags: 3xFlag, SV40 NLS; chain copies: 2.

The target in data set [5] is T5, GFP1 Right NT-betaN TAL-PBx (synthetic construct).
T5 chain: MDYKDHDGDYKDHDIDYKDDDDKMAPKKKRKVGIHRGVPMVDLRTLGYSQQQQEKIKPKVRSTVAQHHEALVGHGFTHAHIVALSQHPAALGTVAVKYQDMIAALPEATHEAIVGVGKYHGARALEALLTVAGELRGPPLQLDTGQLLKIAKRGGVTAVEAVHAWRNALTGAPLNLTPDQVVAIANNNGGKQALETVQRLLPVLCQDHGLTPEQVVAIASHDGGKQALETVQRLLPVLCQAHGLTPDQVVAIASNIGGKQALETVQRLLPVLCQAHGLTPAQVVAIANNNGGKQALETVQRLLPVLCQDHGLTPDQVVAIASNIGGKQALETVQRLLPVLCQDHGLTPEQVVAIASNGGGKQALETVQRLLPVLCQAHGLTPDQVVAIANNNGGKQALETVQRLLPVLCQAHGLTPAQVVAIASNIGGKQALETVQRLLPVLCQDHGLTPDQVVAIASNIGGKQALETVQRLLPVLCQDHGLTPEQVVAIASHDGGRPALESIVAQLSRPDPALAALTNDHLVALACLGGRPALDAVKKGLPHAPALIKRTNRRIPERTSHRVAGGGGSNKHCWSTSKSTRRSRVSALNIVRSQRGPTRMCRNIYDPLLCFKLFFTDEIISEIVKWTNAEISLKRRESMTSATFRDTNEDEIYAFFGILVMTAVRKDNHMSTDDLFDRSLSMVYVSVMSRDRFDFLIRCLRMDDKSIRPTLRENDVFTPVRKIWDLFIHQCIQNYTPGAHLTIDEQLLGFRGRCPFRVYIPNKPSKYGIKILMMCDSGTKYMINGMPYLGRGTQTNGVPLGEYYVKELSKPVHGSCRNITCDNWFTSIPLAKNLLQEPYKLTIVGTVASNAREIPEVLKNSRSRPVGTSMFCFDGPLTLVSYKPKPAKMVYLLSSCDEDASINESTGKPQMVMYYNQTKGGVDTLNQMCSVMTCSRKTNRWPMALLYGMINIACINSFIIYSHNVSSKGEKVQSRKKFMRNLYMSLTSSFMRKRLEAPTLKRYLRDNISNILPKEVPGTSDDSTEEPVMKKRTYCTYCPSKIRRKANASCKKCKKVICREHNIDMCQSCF
As to the kind of experiment: cell_activity. Conditions: tags: 3xFlag, SV40 NLS; chain copies: 2.

B1: PAH1 target (dsDNA)
DNA 1: TGAGATGATGTAACATCTATTCCATTAATTTCATTAACTTGCTTACAAGAGA
DNA 2: TCTCTTGTAAGCAAGTTAATGAAATTAATGGAATAGATGTTACATCATCTCA
Take B1: the activity in data set [1] is 5.7 % GFP+; in data set [2], 4.2 % GFP+.

B2: GFP1R 13 bp 5'A (dsDNA)
DNA 1: AGCAGATGAACGCAATCTCACGGCTTAACTACTGACCTGAAGTTCATCTGCT
DNA 2: AGCAGATGAACTTCAGGTCAGTAGTTAAGCCGTGAGATTGCGTTCATCTGCT
With B2, the activity came out at 11.3 % GFP+ in data set [3], 21.5 % GFP+ in data set [4] and 23.7 % GFP+ in data set [5].

B3: GFP1R 13 bp 5'C (dsDNA)
DNA 1: B2 DNA 1 with A1C, T52G
DNA 2: B2 DNA 2 with A1C, T52G
As to B3, the activity in data set [3] stood at 11.5 % GFP+; in data set [4], 18.5 % GFP+; in data set [5], 22.3 % GFP+.
